Results reported in patent US20210139548A1 (published 2021).
*1 amine or outer side, *2 acyl side, *3 side chain or, on linkers, in order; H or OH if unused. Side-chain parts run from the residue outwards. The star is where a group is joined. C18 diacid = O=C(O)CCCCCCCCCCCCCCCCC(=O)*; γGlu = O=C(O)[C@H](CCC(=O)[*:2])N[*:1]; Isovaleryl = CC(C)CC(=O)*; AEEA = NCCOCCOCC(=O)O

T1: human neuropeptide Y2 receptor (human, UniProt P49146 1-381)
T1 construct: whole, on cells; also called hNPY2 receptor; hNPY2-R
T1 sequence (looked up): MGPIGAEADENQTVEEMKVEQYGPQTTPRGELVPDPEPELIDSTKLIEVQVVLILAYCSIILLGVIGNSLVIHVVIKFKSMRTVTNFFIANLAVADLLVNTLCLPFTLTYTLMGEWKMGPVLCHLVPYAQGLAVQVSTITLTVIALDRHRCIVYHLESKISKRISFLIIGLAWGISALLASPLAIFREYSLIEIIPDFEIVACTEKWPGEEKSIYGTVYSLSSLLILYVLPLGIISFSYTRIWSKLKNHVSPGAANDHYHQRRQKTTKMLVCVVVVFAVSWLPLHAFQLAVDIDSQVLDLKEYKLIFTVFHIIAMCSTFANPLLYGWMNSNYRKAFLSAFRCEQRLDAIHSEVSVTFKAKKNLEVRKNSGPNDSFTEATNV


Molecular target: T1, human neuropeptide Y2 receptor
Experiment: radioligand competition (125I-PYY(1-36)), hNPY2R membranes
Procedure, shortened: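 Commercial human Y2 receptor membranes (0.5 μg protein/well) were incubated with peptide for 2 h at room temperature in 50 mM HEPES, 5 mM MgCl₂, 1 mM CaCl₂, pH 7.4, with 0.2% ovalbumin. Bound radioligand was separated on PEI-soaked GF/C filters and counted by scintillation, and IC₅₀ came from nonlinear sigmoidal regression.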

| Ki | Binder |
| --- | --- |
| 8.54 nM | Isovaleryl-APEK([AEEA-AEEA-γGlu-C18 diacid])AEEDASPEELQRYYVELRHYYNWLTRQRY-NH2 (SMILES CC(C)CC(=O)N[C@@H](C)C(=O)N1CCC[C@H]1C(=O)N[C@@H](CCC(=O)O)C(=O)N[C@@H](CCCCNC(=O)COCCOCCNC(=O)COCCOCCNC(=O)CC[C@H](NC(=O)CCCCCCCCCCCCCCCCC(=O)O)C(=O)O)C(=O)N[C@@H](C)C(=O)N[C@@H](CCC(=O)O)C(=O)N[C@@H](CCC(=O)O)C(=O)N[C@@H](CC(=O)O)C(=O)N[C@@H](C)C(=O)N[C@@H](CO)C(=O)N1CCC[C@H]1C(=O)N[C@@H](CCC(=O)O)C(=O)N[C@@H](CCC(=O)O)C(=O)N[C@@H](CC(C)C)C(=O)N[C@@H](CCC(N)=O)C(=O)N[C@@H](CCCNC(=N)N)C(=O)N[C@@H](Cc1ccc(O)cc1)C(=O)N[C@@H](Cc1ccc(O)cc1)C(=O)N[C@H](C(=O)N[C@@H](CCC(=O)O)C(=O)N[C@@H](CC(C)C)C(=O)N[C@@H](CCCNC(=N)N)C(=O)N[C@@H](Cc1c[nH]cn1)C(=O)N[C@@H](Cc1ccc(O)cc1)C(=O)N[C@@H](Cc1ccc(O)cc1)C(=O)N[C@@H](CC(N)=O)C(=O)N[C@@H](Cc1c[nH]c2ccccc12)C(=O)N[C@@H](CC(C)C)C(=O)N[C@H](C(=O)N[C@@H](CCCNC(=N)N)C(=O)N[C@@H](CCC(N)=O)C(=O)N[C@@H](CCCNC(=N)N)C(=O)N[C@@H](Cc1ccc(O)cc1)C(N)=O)[C@@H](C)O)C(C)C) [Compound 131] |
| 2.31 nM | Isovaleryl-APEK([AEEA-AEEA-γGlu-C18 diacid])PEEDASPEEVQRYYVELRHYYNWLTRQRY-NH2 (SMILES CC(C)CC(=O)N[C@@H](C)C(=O)N1CCC[C@H]1C(=O)N[C@@H](CCC(=O)O)C(=O)N[C@@H](CCCCNC(=O)COCCOCCNC(=O)COCCOCCNC(=O)CC[C@H](NC(=O)CCCCCCCCCCCCCCCCC(=O)O)C(=O)O)C(=O)N1CCC[C@H]1C(=O)N[C@@H](CCC(=O)O)C(=O)N[C@@H](CCC(=O)O)C(=O)N[C@@H](CC(=O)O)C(=O)N[C@@H](C)C(=O)N[C@@H](CO)C(=O)N1CCC[C@H]1C(=O)N[C@@H](CCC(=O)O)C(=O)N[C@@H](CCC(=O)O)C(=O)N[C@H](C(=O)N[C@@H](CCC(N)=O)C(=O)N[C@@H](CCCNC(=N)N)C(=O)N[C@@H](Cc1ccc(O)cc1)C(=O)N[C@@H](Cc1ccc(O)cc1)C(=O)N[C@H](C(=O)N[C@@H](CCC(=O)O)C(=O)N[C@@H](CC(C)C)C(=O)N[C@@H](CCCNC(=N)N)C(=O)N[C@@H](Cc1c[nH]cn1)C(=O)N[C@@H](Cc1ccc(O)cc1)C(=O)N[C@@H](Cc1ccc(O)cc1)C(=O)N[C@@H](CC(N)=O)C(=O)N[C@@H](Cc1c[nH]c2ccccc12)C(=O)N[C@@H](CC(C)C)C(=O)N[C@H](C(=O)N[C@@H](CCCNC(=N)N)C(=O)N[C@@H](CCC(N)=O)C(=O)N[C@@H](CCCNC(=N)N)C(=O)N[C@@H](Cc1ccc(O)cc1)C(N)=O)[C@@H](C)O)C(C)C)C(C)C) [Compound 133] |
| 1.18 nM | Isovaleryl-APEK([AEEA-AEEA-γGlu-C18 diacid])PEEDASPEELQKYYVTLRHYYNWLTRQRY-NH2 (SMILES CC(C)CC(=O)N[C@@H](C)C(=O)N1CCC[C@H]1C(=O)N[C@@H](CCC(=O)O)C(=O)N[C@@H](CCCCNC(=O)COCCOCCNC(=O)COCCOCCNC(=O)CC[C@H](NC(=O)CCCCCCCCCCCCCCCCC(=O)O)C(=O)O)C(=O)N1CCC[C@H]1C(=O)N[C@@H](CCC(=O)O)C(=O)N[C@@H](CCC(=O)O)C(=O)N[C@@H](CC(=O)O)C(=O)N[C@@H](C)C(=O)N[C@@H](CO)C(=O)N1CCC[C@H]1C(=O)N[C@@H](CCC(=O)O)C(=O)N[C@@H](CCC(=O)O)C(=O)N[C@@H](CC(C)C)C(=O)N[C@@H](CCC(N)=O)C(=O)N[C@@H](CCCCN)C(=O)N[C@@H](Cc1ccc(O)cc1)C(=O)N[C@@H](Cc1ccc(O)cc1)C(=O)N[C@H](C(=O)N[C@H](C(=O)N[C@@H](CC(C)C)C(=O)N[C@@H](CCCNC(=N)N)C(=O)N[C@@H](Cc1c[nH]cn1)C(=O)N[C@@H](Cc1ccc(O)cc1)C(=O)N[C@@H](Cc1ccc(O)cc1)C(=O)N[C@@H](CC(N)=O)C(=O)N[C@@H](Cc1c[nH]c2ccccc12)C(=O)N[C@@H](CC(C)C)C(=O)N[C@H](C(=O)N[C@@H](CCCNC(=N)N)C(=O)N[C@@H](CCC(N)=O)C(=O)N[C@@H](CCCNC(=N)N)C(=O)N[C@@H](Cc1ccc(O)cc1)C(N)=O)[C@@H](C)O)[C@@H](C)O)C(C)C) [Compound 132] |
| 1.31 nM | Isovaleryl-APEK([AEEA-AEEA-γGlu-C18 diacid])PEADASPEELQRYYVELRHYYNWLTRQRY-NH2 (SMILES CC(C)CC(=O)N[C@@H](C)C(=O)N1CCC[C@H]1C(=O)N[C@@H](CCC(=O)O)C(=O)N[C@@H](CCCCNC(=O)COCCOCCNC(=O)COCCOCCNC(=O)CC[C@H](NC(=O)CCCCCCCCCCCCCCCCC(=O)O)C(=O)O)C(=O)N1CCC[C@H]1C(=O)N[C@@H](CCC(=O)O)C(=O)N[C@@H](C)C(=O)N[C@@H](CC(=O)O)C(=O)N[C@@H](C)C(=O)N[C@@H](CO)C(=O)N1CCC[C@H]1C(=O)N[C@@H](CCC(=O)O)C(=O)N[C@@H](CCC(=O)O)C(=O)N[C@@H](CC(C)C)C(=O)N[C@@H](CCC(N)=O)C(=O)N[C@@H](CCCNC(=N)N)C(=O)N[C@@H](Cc1ccc(O)cc1)C(=O)N[C@@H](Cc1ccc(O)cc1)C(=O)N[C@H](C(=O)N[C@@H](CCC(=O)O)C(=O)N[C@@H](CC(C)C)C(=O)N[C@@H](CCCNC(=N)N)C(=O)N[C@@H](Cc1c[nH]cn1)C(=O)N[C@@H](Cc1ccc(O)cc1)C(=O)N[C@@H](Cc1ccc(O)cc1)C(=O)N[C@@H](CC(N)=O)C(=O)N[C@@H](Cc1c[nH]c2ccccc12)C(=O)N[C@@H](CC(C)C)C(=O)N[C@H](C(=O)N[C@@H](CCCNC(=N)N)C(=O)N[C@@H](CCC(N)=O)C(=O)N[C@@H](CCCNC(=N)N)C(=O)N[C@@H](Cc1ccc(O)cc1)C(N)=O)[C@@H](C)O)C(C)C) [Compound 135] |
| 1.17 nM | Isovaleryl-APEK([AEEA-AEEA-γGlu-C18 diacid])PEEDASPEEIQRYYTELRHYYNWLTRQRY-NH2 (SMILES CC[C@H](C)[C@H](NC(=O)[C@H](CCC(=O)O)NC(=O)[C@H](CCC(=O)O)NC(=O)[C@@H]1CCCN1C(=O)[C@H](CO)NC(=O)[C@H](C)NC(=O)[C@H](CC(=O)O)NC(=O)[C@H](CCC(=O)O)NC(=O)[C@H](CCC(=O)O)NC(=O)[C@@H]1CCCN1C(=O)[C@H](CCCCNC(=O)COCCOCCNC(=O)COCCOCCNC(=O)CC[C@H](NC(=O)CCCCCCCCCCCCCCCCC(=O)O)C(=O)O)NC(=O)[C@H](CCC(=O)O)NC(=O)[C@@H]1CCCN1C(=O)[C@H](C)NC(=O)CC(C)C)C(=O)N[C@@H](CCC(N)=O)C(=O)N[C@@H](CCCNC(=N)N)C(=O)N[C@@H](Cc1ccc(O)cc1)C(=O)N[C@@H](Cc1ccc(O)cc1)C(=O)N[C@H](C(=O)N[C@@H](CCC(=O)O)C(=O)N[C@@H](CC(C)C)C(=O)N[C@@H](CCCNC(=N)N)C(=O)N[C@@H](Cc1c[nH]cn1)C(=O)N[C@@H](Cc1ccc(O)cc1)C(=O)N[C@@H](Cc1ccc(O)cc1)C(=O)N[C@@H](CC(N)=O)C(=O)N[C@@H](Cc1c[nH]c2ccccc12)C(=O)N[C@@H](CC(C)C)C(=O)N[C@H](C(=O)N[C@@H](CCCNC(=N)N)C(=O)N[C@@H](CCC(N)=O)C(=O)N[C@@H](CCCNC(=N)N)C(=O)N[C@@H](Cc1ccc(O)cc1)C(N)=O)[C@@H](C)O)[C@@H](C)O) [Compound 134] |
| 0.89 nM | Isovaleryl-APEK([AEEA-AEEA-γGlu-C18 diacid])PEADSSPEELQRYYVSLRHYYNWLTRQRY-NH2 (SMILES CC(C)CC(=O)N[C@@H](C)C(=O)N1CCC[C@H]1C(=O)N[C@@H](CCC(=O)O)C(=O)N[C@@H](CCCCNC(=O)COCCOCCNC(=O)COCCOCCNC(=O)CC[C@H](NC(=O)CCCCCCCCCCCCCCCCC(=O)O)C(=O)O)C(=O)N1CCC[C@H]1C(=O)N[C@@H](CCC(=O)O)C(=O)N[C@@H](C)C(=O)N[C@@H](CC(=O)O)C(=O)N[C@@H](CO)C(=O)N[C@@H](CO)C(=O)N1CCC[C@H]1C(=O)N[C@@H](CCC(=O)O)C(=O)N[C@@H](CCC(=O)O)C(=O)N[C@@H](CC(C)C)C(=O)N[C@@H](CCC(N)=O)C(=O)N[C@@H](CCCNC(=N)N)C(=O)N[C@@H](Cc1ccc(O)cc1)C(=O)N[C@@H](Cc1ccc(O)cc1)C(=O)N[C@H](C(=O)N[C@@H](CO)C(=O)N[C@@H](CC(C)C)C(=O)N[C@@H](CCCNC(=N)N)C(=O)N[C@@H](Cc1c[nH]cn1)C(=O)N[C@@H](Cc1ccc(O)cc1)C(=O)N[C@@H](Cc1ccc(O)cc1)C(=O)N[C@@H](CC(N)=O)C(=O)N[C@@H](Cc1c[nH]c2ccccc12)C(=O)N[C@@H](CC(C)C)C(=O)N[C@H](C(=O)N[C@@H](CCCNC(=N)N)C(=O)N[C@@H](CCC(N)=O)C(=O)N[C@@H](CCCNC(=N)N)C(=O)N[C@@H](Cc1ccc(O)cc1)C(N)=O)[C@@H](C)O)C(C)C) [Compound 136] |
